Columns and labels:
Assay in all cases: mitochondrial relocalisation (mito-tag) assay, fluorescence microscopy; ANRP fused to Tom70-HA and mCherry held at the outer mitochondrial membrane in Drosophila embryos (cells at stage 12); ectopic recruitment of endogenous CRISPR Arp3:GFP scored by colocalisation, Pearson coefficient and GFP:mCherry intensity ratio; the paper says the approach does not differentiate between direct and indirect interactions
[1] = target: UAS:mito:mCherry:Coronin (D. melanogaster)
[2] = target: UAS:mito:mCherry:Cortactin (D. melanogaster)
Chain of UAS:mito:mCherry:Cortactin (D. melanogaster) (main, as listed by the source): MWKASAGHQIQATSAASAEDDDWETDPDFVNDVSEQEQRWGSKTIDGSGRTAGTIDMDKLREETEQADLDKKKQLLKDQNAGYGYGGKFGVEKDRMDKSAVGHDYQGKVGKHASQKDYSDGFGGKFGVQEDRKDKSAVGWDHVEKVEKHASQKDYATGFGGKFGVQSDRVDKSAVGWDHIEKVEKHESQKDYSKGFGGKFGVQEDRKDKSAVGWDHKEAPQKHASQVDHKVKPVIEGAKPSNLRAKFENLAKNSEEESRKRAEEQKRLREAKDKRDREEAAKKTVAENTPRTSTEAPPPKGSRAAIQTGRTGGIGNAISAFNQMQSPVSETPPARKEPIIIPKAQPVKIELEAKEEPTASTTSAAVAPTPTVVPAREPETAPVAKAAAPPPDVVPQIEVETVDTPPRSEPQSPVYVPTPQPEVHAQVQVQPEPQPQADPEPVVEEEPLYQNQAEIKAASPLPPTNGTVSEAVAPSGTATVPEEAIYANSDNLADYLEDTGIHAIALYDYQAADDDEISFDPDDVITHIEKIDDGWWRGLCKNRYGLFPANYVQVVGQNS

[3] = target: UAS:mito:mCherry:DPod1 (D. melanogaster)
[4] = target: UAS:mito:mCherry:Scar (D. melanogaster)

Chain of CRISPR Arp3:GFP (P32392 whole entry): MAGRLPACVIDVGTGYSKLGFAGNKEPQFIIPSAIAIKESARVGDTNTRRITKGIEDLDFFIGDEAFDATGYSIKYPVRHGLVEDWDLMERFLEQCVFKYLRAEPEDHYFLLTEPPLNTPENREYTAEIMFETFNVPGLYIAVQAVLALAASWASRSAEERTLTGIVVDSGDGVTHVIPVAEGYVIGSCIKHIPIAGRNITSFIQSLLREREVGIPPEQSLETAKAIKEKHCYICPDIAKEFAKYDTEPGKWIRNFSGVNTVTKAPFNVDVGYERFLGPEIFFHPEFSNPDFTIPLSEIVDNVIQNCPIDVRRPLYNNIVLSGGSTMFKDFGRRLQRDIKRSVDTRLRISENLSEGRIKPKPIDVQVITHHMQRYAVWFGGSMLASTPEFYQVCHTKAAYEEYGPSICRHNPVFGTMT

Pearson correlation coefficient of colocalisation [1]: 0.234
Pearson correlation coefficient of colocalisation [2]: 0.492
Pearson correlation coefficient of colocalisation [3]: 0.625
Pearson correlation coefficient of colocalisation [4]: 0.313
percent colocalization [4]: 50%
Substance: CRISPR Arp3:GFP (from UniProt P32392 1-418) (natural protein)
